Laboratory results taken from paper PMC10643698.
Where “and” joins values, the source holds several entries; their conditions need not be identical. Equal values may be shown once. Read-outs that look alike come from different tables or passages of the source.

Columns and labels:
[1] = target: Meiothermus taiwanensis LonA, wild type, full length (Meiothermus taiwanensis); experiment: cryo-EM structure; wild-type MtaLon 1 μM (as hexamer) without any nucleotide (MtaLon-Apo)
[2] = target: Meiothermus taiwanensis LonA, wild type, full length (Meiothermus taiwanensis); experiment: as above; remark: listed apart in the source
[3] = target: Meiothermus taiwanensis LonA, wild type, full length (Meiothermus taiwanensis); experiment: cryo-EM structure; wild-type MtaLon 1 μM (as hexamer) incubated with 5 mM ADP overnight; single-particle reconstruction without symmetry
[4] = target: Meiothermus taiwanensis LonA, wild type, full length (Meiothermus taiwanensis); experiment: as above; remark: listed apart in the source
[5] = target: MtaLon-Y397A/S678A (Meiothermus taiwanensis); experiment: cryo-EM structure; MtaLon-Y397A/S678A 1 μM (as hexamer) with 10 μM casein and 5 mM ATPγS, 3 h
[6] = target: MtaLon-Y224S (Meiothermus taiwanensis); experiment: cryo-EM structure; MtaLon-Y224S 1 μM (as hexamer) incubated with 5 mM ATPγS overnight
[7] = target: MtaLon-Y224S (Meiothermus taiwanensis); experiment: cryo-EM structure; 10 μM ΔN-E613K and 5 mM ADP incubated with 1 μM MtaLon-Y224S at 4 °C for 1 h, mixture purified on Superose 6 Increase; 5+1 heteromeric complex
[8] = target: MtaLon-S678A (Meiothermus taiwanensis); experiment: cryo-EM structure; MtaLon-S678A 1 μM (as hexamer) with 10 μM casein and 5 mM ADP, overnight
[9] = target: MtaLon-S678A (Meiothermus taiwanensis); experiment: as above; remark: listed apart in the source
[10] = target: fluorescein isothiocyanate (FITC)-labeled casein (UniProt P02662); experiment: fluorescence polarisation; MtaLon samples serially diluted (5 µM to 0.01 µM) mixed with 1.25 µM FITC-casein, 1 mM ADP, 4 °C, 3 h; triplicates
[11] = target: MtaLon-M217A (Meiothermus taiwanensis); experiment: cryo-EM structure; MtaLon-M217A 1 μM (as hexamer) with 10 μM casein and 5 mM ADP, 3 h

Chain of UniProt P02662 (P02662 16-214): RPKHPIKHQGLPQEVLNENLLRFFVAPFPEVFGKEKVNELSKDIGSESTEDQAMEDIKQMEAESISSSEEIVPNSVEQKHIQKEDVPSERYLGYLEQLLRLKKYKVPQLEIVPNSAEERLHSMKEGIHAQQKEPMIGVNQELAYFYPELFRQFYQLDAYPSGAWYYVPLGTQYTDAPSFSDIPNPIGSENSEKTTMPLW

Meiothermus taiwanensis LonA, wild type, full length (enzyme)
stoichiometry N [1]: 5 and 6
stoichiometry N [2]: 3 and 4
stoichiometry N [3]: 5 and 6
stoichiometry N [4]: 3 and 4

MtaLon-Y397A/S678A (enzyme)
stoichiometry N [5]: 5 and 6

MtaLon-Y224S (enzyme)
stoichiometry N [6]: 5 and 6
stoichiometry N [7]: 5 and 6

MtaLon-S678A (enzyme)
stoichiometry N [8]: 6
stoichiometry N [9]: 5
Kd [10]: 1.38 µM

MtaLon-M217A (enzyme)
stoichiometry N [11]: 5 and 6
